Sequences and labels used below:
B1: KCNG1 (parent)
chain: AVNLSVSTLPSLREEEEQVRAHAP

This note sets out measurements from the supplement of paper PMC10567573.
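Note: lentivirally expressed fusions sorted by FACS into six bins by GFP to DsRed ratio, PSI derived from sequencing read proportions per bin multiplied by bin number.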

Variants of B1 are the subject of this data set. The data set can be described thus: protein stability index of a GFP-peptide fusion (GPS, HEK-293T) (PSI 1-6); higher = more stable. As to conditions: c terminus: a fixed tail appended.
Regarding AVNLSVSTLPSLREESEQVRAHAP [E16S], the protein stability index worked out at 4.27. As to AVNLSVSTLPSLREEFEQVRAHAP [E16F], the protein stability index was determined as 3.59. The result for AVNLSVSTLPSLREEYEQVRAHAP [E16Y] reads 3.63; that for AVNLSVSTLPSLREEDEQVRAHAP [E16D], 5.26; that for AVNLSVSTLPSLREEAEQVRAHAP [E16A], 4.48. The result for AVNLSVSTLPSLREEWEQVRAHAP [E16W] reads 3.38.

Turning to AVNLSVSTLPSLREEGEQVRAHAP [E16G], the protein stability index turned out to be 4.67.

In the case of AVNLSVSTLPSLREETEQVRAHAP [E16T], the protein stability index turned out to be 4.12.

As for AVNLSVSTLPSLREEIEQVRAHAP [E16I], the protein stability index was 3.27. For AVNLSVSTLTSLREEEEQVRAHAP [P10T] the value was 4.49. The result for AVNLSVSTLMSLREEEEQVRAHAP [P10M] reads 4.28. Regarding AVNLSVSTLQSLREEEEQVRAHAP [P10Q], the protein stability index worked out at 5.05.

AVNLSVSTLASLREEEEQVRAHAP [P10A]: the protein stability index turned out to be 4.59.

As to AVNLSVSTLRSLREEEEQVRAHAP [P10R], the protein stability index amounted to 4.29.

Consider AVNLSVSTLVSLREEEEQVRAHAP [P10V], for which the protein stability index was determined as 4.61. For AVNLSVSTLNSLREEEEQVRAHAP [P10N] the value was 4.7; for AVNLSVSTLCSLREEEEQVRAHAP [P10C], 4.35; for AVNLSVSTLGSLREEEEQVRAHAP [P10G], 4.71. The result for AVNLSVSTLISLREEEEQVRAHAP [P10I] reads 3.67. For AVNLSVSTLFSLREEEEQVRAHAP [P10F] the value was 3.5; for AVNLSVSTLKSLREEEEQVRAHAP [P10K], 4.74; for AVNLSVSTLSSLREEEEQVRAHAP [P10S], 4.62.

On to AVNLSVSTLHSLREEEEQVRAHAP [P10H], for which the protein stability index was found to be 4.63. On to AVNLSVSTLDSLREEEEQVRAHAP [P10D], for which the protein stability index was 5.06. With AVNLSVSTLLSLREEEEQVRAHAP [P10L], the protein stability index was 4.06. The result for AVNLSVSTLYSLREEEEQVRAHAP [P10Y] reads 4.03; that for AVNLSVSTLESLREEEEQVRAHAP [P10E], 5.04. The result for AVNLSVSTLWSLREEEEQVRAHAP [P10W] reads 4.05; that for AVNLSVYTLPSLREEEEQVRAHAP [S7Y], 4.19; that for AVNLSVPTLPSLREEEEQVRAHAP [S7P], 5.09.

With AVNLSVQTLPSLREEEEQVRAHAP [S7Q], the protein stability index was determined as 4.91. For AVNLSVVTLPSLREEEEQVRAHAP [S7V] the value was 4.71; for AVNLSVNTLPSLREEEEQVRAHAP [S7N], 5.02. For AVNLSVRTLPSLREEEEQVRAHAP [S7R] the value was 4.93; for AVNLSVTTLPSLREEEEQVRAHAP [S7T], 4.95; for AVNLSVMTLPSLREEEEQVRAHAP [S7M], 4.53. AVNLSVWTLPSLREEEEQVRAHAP [S7W]: the protein stability index was determined as 3.68. As for AVNLSVSTEPSLREEEEQVRAHAP [L9E], the protein stability index is 4.67.

As for AVNLSVSTDPSLREEEEQVRAHAP [L9D], the protein stability index came out at 5.49. The result for AVNLSVSTHPSLREEEEQVRAHAP [L9H] reads 4.81; that for AVNLSVSTTPSLREEEEQVRAHAP [L9T], 5.08; that for AVNLSVSTYPSLREEEEQVRAHAP [L9Y], 4.47.

Turning to AVNLSVSTIPSLREEEEQVRAHAP [L9I], the protein stability index is 4.14. The result for AVNLSVSTFPSLREEEEQVRAHAP [L9F] reads 5.08. In the case of AVNLSVSTPPSLREEEEQVRAHAP [L9P], the protein stability index amounted to 5.26. As for AVNLSVSTQPSLREEEEQVRAHAP [L9Q], the protein stability index was determined as 4.88.

Turning to AVNLSVSTKPSLREEEEQVRAHAP [L9K], the protein stability index is 5.19.

In the case of AVNLSVSTSPSLREEEEQVRAHAP [L9S], the protein stability index is 5.09. Take AVNLSVSTVPSLREEEEQVRAHAP [L9V]: the protein stability index is 4.73. Regarding AVNLSVSTWPSLREEEEQVRAHAP [L9W], the protein stability index came to 3.81. For AVNLSVSTNPSLREEEEQVRAHAP [L9N] the value was 5.42; for AVNLSVSTCPSLREEEEQVRAHAP [L9C], 4.66.

Take AVNLSVSTGPSLREEEEQVRAHAP [L9G]: the protein stability index stood at 4.83. The result for AVNLSVSTAPSLREEEEQVRAHAP [L9A] reads 5.36. For AVNLSVSTRPSLREEEEQVRAHAP [L9R] the value was 5.28. Turning to AVNLSVSTMPSLREEEEQVRAHAP [L9M], the protein stability index was determined as 4.63. For the variant AVNLSVSTLPSLRQEEEQVRAHAP [E14Q], the protein stability index is 4.87.

Take AVNLSVSTLPSLRLEEEQVRAHAP [E14L]: the protein stability index worked out at 4.51. Turning to AVNLSVSTLPSLRCEEEQVRAHAP [E14C], the protein stability index amounted to 4.16. The result for AVNLSVSTLPSLRHEEEQVRAHAP [E14H] reads 4.56; that for AVNLSVSTLPSLRSEEEQVRAHAP [E14S], 4.98. For AVNLSVSTLPSLRMEEEQVRAHAP [E14M], the protein stability index is 4.11. As for AVNLSVSTLPSLRKEEEQVRAHAP [E14K], the protein stability index was determined as 4.3.

For the variant AVNLSVSTLPSLRPEEEQVRAHAP [E14P], the protein stability index is 4.8. The result for AVNLSVSTLPSLRNEEEQVRAHAP [E14N] reads 4.46.

With AVNLSVSTLPSLRGEEEQVRAHAP [E14G], the protein stability index turned out to be 4.56.

As for AVNLSVSTLPSLRWEEEQVRAHAP [E14W], the protein stability index is 3.9.

Take AVNLSVSTLPSLRDEEEQVRAHAP [E14D]: the protein stability index was determined as 4.96. The result for AVNLSVSTLPSLRTEEEQVRAHAP [E14T] reads 4.54; that for AVNLSVSTLPSLRVEEEQVRAHAP [E14V], 4.39. Take AVNLSVSTLPSLRFEEEQVRAHAP [E14F]: the protein stability index worked out at 3.56.

For AVNLSVSTLPSLRREEEQVRAHAP [E14R], the protein stability index stood at 4.24. For AVNLSVSTLPSLRIEEEQVRAHAP [E14I] the value was 4.37; for AVNLSVSTLPSLRYEEEQVRAHAP [E14Y], 4.34; for AVNLSVSTLPSLRAEEEQVRAHAP [E14A], 4.39. For AVNLSVSTLPSLREQEEQVRAHAP [E15Q] the value was 4.79; for AVNLSVSTLPSLREREEQVRAHAP [E15R], 4.76. For AVNLSVSTLPSLREWEEQVRAHAP [E15W] the value was 3.52. On to AVNLSVSTLPSLREKEEQVRAHAP [E15K], for which the protein stability index turned out to be 4.82.

Consider AVNLSVSTLPSLREGEEQVRAHAP [E15G], for which the protein stability index is 4.59. For AVNLSVSTLPSLREDEEQVRAHAP [E15D] the value was 5.05; for AVNLSVSTLPSLREAEEQVRAHAP [E15A], 4.2; for AVNLSVSTLPSLREMEEQVRAHAP [E15M], 4.29.

On to AVNLSVSTLPSLREFEEQVRAHAP [E15F], for which the protein stability index stood at 3.52. The result for AVNLSVSTLPSLRECEEQVRAHAP [E15C] reads 4.23; that for AVNLSVSTLPSLRESEEQVRAHAP [E15S], 4.8; that for AVNLSVSTLPSLREPEEQVRAHAP [E15P], 4.93. As for AVNLSVSTLPSLREHEEQVRAHAP [E15H], the protein stability index was found to be 4.42.

For the variant AVNLSVSTLPSLRETEEQVRAHAP [E15T], the protein stability index was found to be 4.52. Take AVNLSVSTLPSLREYEEQVRAHAP [E15Y]: the protein stability index was 3.64. For AVNLSVSTLPSLREIEEQVRAHAP [E15I] the value was 3.92. The result for AVNLSVSTLPSLRENEEQVRAHAP [E15N] reads 4.61; that for AVNLSVSTLPSLREVEEQVRAHAP [E15V], 4.06; that for AVNLSVSTLPSLRELEEQVRAHAP [E15L], 3.42.
